B1: ePGDM13 (antibody, V domains shown)
VH: QAQLVQSGPEVRKPGTSVKVSCKNPGNTLTTYDLHWVRQVPGQGLQWMGWISHEGDKKVIVERFKAKVTIDWDRSTNTAYLQLSGLTSEDTAVYYCAKGSKHRLRDYALYDEDGALNWAVDVDYLANLEFWGQGTAVTVSS
VL: DIVLTQSPLSLSVTPGESASISCKSSHSLQHGDRNNYLAWYVQKPGRSPQLLLDLASERASGVPDRFSGSGSEKDFTLKISRVETEDVGTYYCMQGRESPWTFGQGTKVDIK
B2: PGDM1400 (antibody, V domains shown)
VH: QVHLTQSGPEVRKPGTSVKVSCKAPGNTLKTYDLHWVRSVPGQGLQWMGWISHEGDKKVIVERFKAKVTIDWDRSTNTAYLQLSGLTSGDTAVYYCAKGSKHRLRDYALYDDDGALNWAVDVDYLSNLEFWGQGTAVTVSS
VL: DFVLTQSPHSLSVTPGESASISCKSSHSLIHGDRNNYLAWYVQKPGRSPQLLIYLASSRASGVPDRFSGSGSDKDFTLKISRVETEDVGTYYCMQGRESPWTFGQGTKVDIK
B3: ePGDM9 (antibody, V domains shown)
VH: QAQLVQSGPEVRKPGTSVKVSCKNPGNTLTTYDLHWVRQVPGQGLQWMGWISHEGDKKVIVERFKAKVTIDWDRSTNTAYLQLSGLTSEDTAVYYCAKGSKHRLRDYALYDEDGALNWAVDVDYLANLEFWGQGTAVTVSS
VL: DIVLTQSPLSLSVTPGESASISCKSSQSLIHGDRNNYLAWYVQKPGRSPQLLIDLASERASGVPDRFSGSGSRKDFTLKISRVETEDVGTYYCMQGRESPWTFGQGTKVDIK
B4: ePGDM5 (antibody, V domains shown)
VH: QAQLVQSGPEVRKPGTSVKVSCKNPGNTLTTYDLHWVRQVPGQGLQWMGWISHEGDKKVIVERFKAKVTIDWDRSTNTAYLQLSGLTSEDTAVYYCAKGSKHRLRDYALYDEDGALNWAVDVDYLANLEFWGQGTAVTVSS
VL: DFVLTQSPLSLSVTPGESASISCKSDHSLQHGDRNNYLAWYVQKPGRSPQLLIDLASERASGVPDRFSGSGSRKDFTLKIDRVEAEDVGTYYCMQGRESPWTFGQGTKVDIK
B5: ePGDM5 (antibody, V domains shown)
VH: QAQLVQSGPEVRKPGTSVKVSCKNPGNTLTTYDLHWVRQVPGQGLQWMGWISHEGDKKVIVERFKAKVTIDWDRSTNTAYLQLSGLTSEDTAVYYCAKGSKHRLRDYALYDEDGALNWAVDVDYLANLEFWGQGTAVTVSS
VL: DFVLTQSPLSLSVTPGESASISCKSDHSLQHGDRNNYLAWYVQKPGRSPQLLIDLASERASGVPDRFSGSGSRKDFTLKIDRVEAEDVGTYYCMQGRESPWTFGQGTKVDIK
B6: ePGDM13 (antibody, V domains shown)
VH: QAQLVQSGPEVRKPGTSVKVSCKNPGNTLTTYDLHWVRQVPGQGLQWMGWISHEGDKKVIVERFKAKVTIDWDRSTNTAYLQLSGLTSEDTAVYYCAKGSKHRLRDYALYDEDGALNWAVDVDYLANLEFWGQGTAVTVSS
VL: DIVLTQSPLSLSVTPGESASISCKSSHSLQHGDRNNYLAWYVQKPGRSPQLLLDLASERASGVPDRFSGSGSEKDFTLKISRVETEDVGTYYCMQGRESPWTFGQGTKVDIK
B7: PGDM1400 (antibody, V domains shown)
VH: QVHLTQSGPEVRKPGTSVKVSCKAPGNTLKTYDLHWVRSVPGQGLQWMGWISHEGDKKVIVERFKAKVTIDWDRSTNTAYLQLSGLTSGDTAVYYCAKGSKHRLRDYALYDDDGALNWAVDVDYLSNLEFWGQGTAVTVSS
VL: DFVLTQSPHSLSVTPGESASISCKSSHSLIHGDRNNYLAWYVQKPGRSPQLLIYLASSRASGVPDRFSGSGSDKDFTLKISRVETEDVGTYYCMQGRESPWTFGQGTKVDIK

Experiments:
Test in all cases: cell-based or functional assay
[1] = target: HIV Env of isolate T278-50 (clade AG) (HIV)
[2] = target: HIV Env of isolate CNE52 (clade BC) (HIV)
[3] = target: HIV Env of isolate T250-4 a.k.a. CRF250 (clade AG) (HIV)
[4] = target: HIV Env of isolate BJOX015000.11.5 (clade AE) (HIV)
[5] = target: HIV Env of isolate 9004SS_A3_4 (clade A) (HIV)
[6] = target: HIV Env of isolate AC10.0.29 (clade B) (HIV)
[7] = target: HIV Env of isolate Ce0393_C3 (clade C) (HIV)
[8] = target: HIV Env of isolate ZM135M.PL10a (clade C) (HIV)
[9] = target: HIV Env of isolate REJO4541.67 (clade B) (HIV)
[10] = target: HIV Env of isolate 928-28 (clade AG) (HIV)
[11] = target: HIV Env of isolate CAP45.2.00.G3 (clade C) (HIV)
[12] = target: HIV Env of isolate TRO.11 (clade B) (HIV)
[13] = target: HIV Env of isolate T235-47 (clade AG) (HIV)
HIV Env, isolate PVO.4 = HIV Env, isolate PVO.4 (HIV)
[14] = target: HIV Env, isolate 6244_13_B5_4576 (HIV)
HIV Env, isolate CNE17 = HIV Env, isolate CNE17 (HIV)
HIV Env, isolate 6535.3 = HIV Env, isolate 6535.3 (HIV)
[15] = target: HIV Env, isolate Ce1176_A3 (HIV)
[16] = target: HIV Env, isolate CAP210.2.00.E8 (HIV)

Binder | IC50 (µg/ml) with constrains [1] [µg/mL] | IC50 (µg/ml) with constrains [2] [µg/mL] | IC50 (µg/ml) with constrains [3] [µg/mL] | IC80 (µg/ml) with constrains [3] [µg/mL] | IC50 (µg/ml) with constrains [4] [µg/mL] | IC80 (µg/ml) with constrains [4] [µg/mL] | IC50 (µg/ml) with constrains [5] [µg/mL] | IC80 (µg/ml) with constrains [5] [µg/mL] | IC50 (µg/ml) with constrains [6] [µg/mL] | IC50 (µg/ml) with constrains [7] [µg/mL] | IC50 (µg/ml) with constrains [8] [µg/mL] | IC50 (µg/ml) with constrains [9] [µg/mL] | IC50 (µg/ml) with constrains [10] [µg/mL] | IC80 (µg/ml) with constrains [10] [µg/mL] | IC50 (µg/ml) with constrains [11] [µg/mL] | IC50 (µg/ml) with constrains [12] [µg/mL] | IC50 (µg/ml) with constrains [13] [µg/mL] | IC80 (µg/ml) with constrains [13] [µg/mL] | IC80 (µg/ml) with constrains (HIV Env, isolate PVO.4) [µg/mL] | IC80 (µg/ml) with constrains [14] [µg/mL] | further results
B1 | 1.6 | 2.83 | 0.035 | 0.14 | 1.72 | 6.86 | > 100 | > 100 | 0.194 | 0.006 | > 100 | 0.002 | 0.019 | 0.077 | 0.002 | 0.352 | 0.005 | 0.019 |  |  | 
B2 | 5.41 | > 100 | 0.28 | 1.12 | 1.05 | 4.21 | > 100 | > 100 | 0.549 | 0.009 | > 100 | 0.004 | 0.069 | 0.277 | 0.001 | 0.206 | 0.011 | 0.044 |  |  | 
B3 | 0.506 | 1.85 | 0.041 | 0.163 | 0.958 | 3.83 | > 100 | > 100 | 0.074 | 0.004 | > 100 | 0.001 | 0.027 | 0.108 | 0.001 | 0.163 | 0.004 | 0.017 |  |  | 
B4 |  |  |  |  |  |  |  |  |  |  |  |  |  |  |  |  |  |  | 5.57 | 75.6 | IC80 (µg/ml) with constrains (HIV Env, isolate CNE17): 0.028 µg/mL; IC80 (µg/ml) with constrains (HIV Env, isolate 6535.3): > 100 µg/mL; IC80 (µg/ml) with constrains [15]: 0.088 µg/mL; IC80 (µg/ml) with constrains [16]: 0.226 µg/mL
B5 | 1.06 | 6.14 | 0.065 | 0.261 | 1.1 | 4.39 | > 100 | > 100 | 0.275 | 0.016 | > 100 | 0.001 | 0.031 | 0.125 | 0.001 | 0.315 | 0.005 | 0.022 |  |  | 
B6 |  |  |  |  |  |  |  |  |  |  |  |  |  |  |  |  |  |  | 11.8 | > 100 | IC80 (µg/ml) with constrains (HIV Env, isolate CNE17): 0.031 µg/mL; IC80 (µg/ml) with constrains (HIV Env, isolate 6535.3): > 100 µg/mL; IC80 (µg/ml) with constrains [15]: 0.124 µg/mL; IC80 (µg/ml) with constrains [16]: 0.538 µg/mL
B7 |  |  |  |  |  |  |  |  |  |  |  |  |  |  |  |  |  |  | 13.6 | > 100 | IC80 (µg/ml) with constrains (HIV Env, isolate CNE17): 0.018 µg/mL; IC80 (µg/ml) with constrains (HIV Env, isolate 6535.3): > 100 µg/mL; IC80 (µg/ml) with constrains [15]: 2.1 µg/mL; IC80 (µg/ml) with constrains [16]: 1.32 µg/mL

Reference: US20230134571A1 (INTERNATIONAL AIDS VACCINE INITIATIVE, published 2023)
